Experimental data as given in patent publication US20230295338A1 (YMMUNOBIO, published 2023).

Assays:
CEACAM1-dN-Fc = molecular target: T1, CEACAM1-dN-Fc (human, UniProt P13688 143-428, limits assumed); assay: solid phase ELISA, CEACAM-Fc coated (FIG. 19)
T1 construct: Human CEACAM1 extracellular part without the N domain, fused to Fc; also called CEACAM1 variant lacking the N domain; not shown: human IgG Fc

human CEACAM3-Fc = molecular target: T2, human CEACAM3-Fc (human, UniProt P40198 35-155, limits assumed); assay: solid phase ELISA, CEACAM-Fc coated, mAb 5 µg/ml (FIG. 19)
T2 construct: also called recombinant CEACAM-Fc protein; not shown: human IgG Fc
T2 sequence (looked up): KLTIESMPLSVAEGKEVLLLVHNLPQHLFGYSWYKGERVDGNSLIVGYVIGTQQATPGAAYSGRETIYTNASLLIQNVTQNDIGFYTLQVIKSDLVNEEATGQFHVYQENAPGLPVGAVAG

[1] = molecular target: T3, human CEACAM1-Fc fusion protein (human, UniProt P13688 35-428); assay: as above
T3 construct: Said to comprise the entire extracellular domain of human CEACAM1; also called CEACAM1-huFc; recombinant CEACAM1-Fc; not shown: human IgG Fc (huFc)
T3 sequence: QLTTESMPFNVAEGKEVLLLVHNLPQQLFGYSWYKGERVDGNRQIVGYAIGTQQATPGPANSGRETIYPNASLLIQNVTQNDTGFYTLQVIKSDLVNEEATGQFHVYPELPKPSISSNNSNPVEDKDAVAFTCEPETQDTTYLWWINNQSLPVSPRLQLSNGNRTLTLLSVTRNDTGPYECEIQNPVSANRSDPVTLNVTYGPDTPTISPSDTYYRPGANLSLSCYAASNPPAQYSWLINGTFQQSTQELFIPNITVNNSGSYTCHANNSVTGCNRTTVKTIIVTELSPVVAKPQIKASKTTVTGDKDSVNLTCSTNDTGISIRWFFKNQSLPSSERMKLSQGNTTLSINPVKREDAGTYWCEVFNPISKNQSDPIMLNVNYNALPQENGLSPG

human CEACAM5-Fc = molecular target: T4, human CEACAM5-Fc (human, UniProt P06731 35-685, limits assumed); assay: as above
T4 construct: also called recombinant CEACAM-Fc protein; not shown: human IgG Fc
T4 sequence (looked up): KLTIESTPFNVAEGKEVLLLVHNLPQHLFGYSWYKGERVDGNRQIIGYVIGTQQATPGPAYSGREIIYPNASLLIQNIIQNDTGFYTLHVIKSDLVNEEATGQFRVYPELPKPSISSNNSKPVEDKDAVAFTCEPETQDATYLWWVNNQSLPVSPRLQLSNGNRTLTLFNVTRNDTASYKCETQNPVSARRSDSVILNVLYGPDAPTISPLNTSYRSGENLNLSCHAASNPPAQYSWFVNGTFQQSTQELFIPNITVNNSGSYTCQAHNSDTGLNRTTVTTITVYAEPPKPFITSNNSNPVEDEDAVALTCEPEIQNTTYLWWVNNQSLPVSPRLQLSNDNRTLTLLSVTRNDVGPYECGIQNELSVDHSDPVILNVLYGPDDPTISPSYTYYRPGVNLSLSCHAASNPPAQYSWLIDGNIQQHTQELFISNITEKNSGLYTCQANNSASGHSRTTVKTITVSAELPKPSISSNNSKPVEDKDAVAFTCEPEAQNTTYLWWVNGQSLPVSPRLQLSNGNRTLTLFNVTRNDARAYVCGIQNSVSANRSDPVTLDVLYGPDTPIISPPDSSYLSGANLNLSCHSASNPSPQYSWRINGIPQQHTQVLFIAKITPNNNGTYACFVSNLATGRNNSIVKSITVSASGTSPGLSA

human CEACAM6-Fc = molecular target: T5, human CEACAM6-Fc (human, UniProt P40199 35-320, limits assumed); assay: sandwich ELISA, CC1/3/5-Sab coated, CEACAM-Fc proteins in solution
T5 construct: also called recombinant CEACAM-Fc protein; not shown: human IgG Fc
T5 sequence (looked up): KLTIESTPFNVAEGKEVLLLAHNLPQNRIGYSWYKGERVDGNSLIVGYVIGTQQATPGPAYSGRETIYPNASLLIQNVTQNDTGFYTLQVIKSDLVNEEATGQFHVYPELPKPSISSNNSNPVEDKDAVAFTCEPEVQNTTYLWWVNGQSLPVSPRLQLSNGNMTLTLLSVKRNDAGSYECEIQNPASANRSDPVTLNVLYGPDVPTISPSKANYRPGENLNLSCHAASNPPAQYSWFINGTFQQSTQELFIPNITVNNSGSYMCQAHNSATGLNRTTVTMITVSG

human CEACAM8-Fc = molecular target: T6, human CEACAM8-Fc (human, UniProt P31997 35-320, limits assumed); assay: as above
T6 construct: also called recombinant CEACAM-Fc protein; not shown: human IgG Fc
T6 sequence (looked up): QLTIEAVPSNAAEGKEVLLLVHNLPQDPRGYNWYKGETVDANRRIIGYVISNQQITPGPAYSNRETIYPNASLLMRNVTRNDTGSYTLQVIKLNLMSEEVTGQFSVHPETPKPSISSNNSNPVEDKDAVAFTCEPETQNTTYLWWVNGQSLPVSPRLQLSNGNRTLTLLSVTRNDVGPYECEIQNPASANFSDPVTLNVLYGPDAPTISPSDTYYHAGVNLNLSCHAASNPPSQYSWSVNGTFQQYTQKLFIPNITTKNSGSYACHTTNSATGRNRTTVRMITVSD

human CEACAM1 = molecular target: T7, human CEACAM1 (human, UniProt P13688 35-526); assay: flow cytometry on CHO transfectants
T7 construct: Expressed on CHO transfectants; also called huCEACAM1; CHO-CEACAM1
T7 sequence: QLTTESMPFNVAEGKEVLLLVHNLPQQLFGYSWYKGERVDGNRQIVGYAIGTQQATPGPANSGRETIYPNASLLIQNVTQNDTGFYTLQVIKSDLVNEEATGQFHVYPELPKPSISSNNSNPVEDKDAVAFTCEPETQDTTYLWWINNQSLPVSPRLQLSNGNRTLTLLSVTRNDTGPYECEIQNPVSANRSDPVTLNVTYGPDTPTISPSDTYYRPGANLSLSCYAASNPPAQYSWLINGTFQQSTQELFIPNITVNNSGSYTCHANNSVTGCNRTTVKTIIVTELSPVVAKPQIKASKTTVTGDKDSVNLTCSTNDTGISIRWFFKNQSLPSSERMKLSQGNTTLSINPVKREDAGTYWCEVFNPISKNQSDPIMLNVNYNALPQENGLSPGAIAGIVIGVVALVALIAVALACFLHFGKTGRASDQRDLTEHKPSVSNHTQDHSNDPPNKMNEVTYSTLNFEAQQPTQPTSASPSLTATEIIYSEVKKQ
Protocol: (§1) After washing, FITC-labeled secondary goat anti mouse antibody was applied. Cell surface binding was analyzed utilizing a FACScalibur flow cytometer (Becton Dickinson).

human CEACAM3 = molecular target: T8, human CEACAM3 (human, UniProt P40198 35-252); assay: flow cytometry on CHO transfectants
T8 construct: whole, on cells; also called huCEACAM3; CHO transfectants expressing human CEACAM3
T8 sequence (looked up): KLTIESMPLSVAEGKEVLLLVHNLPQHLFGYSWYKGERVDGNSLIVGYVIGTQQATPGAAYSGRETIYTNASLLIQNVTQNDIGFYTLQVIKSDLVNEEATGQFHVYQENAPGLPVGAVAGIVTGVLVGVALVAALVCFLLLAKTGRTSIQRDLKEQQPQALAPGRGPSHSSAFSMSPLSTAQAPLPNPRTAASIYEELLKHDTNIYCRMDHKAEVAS
Protocol: as §1

[2] = molecular target: T9, peptide P-Q-Q-L-F-G-Y-S-W-Y (human); assay: solid phase peptide ELISA, mAb 5 µg/ml (FIG. 20)
T9 construct: coated on the ELISA plate
T9 peptide: PQQLFGYSWY
Protocol: After three times washing with PBS, samples were incubated with goat anti mouse-HRP (Jackson ImmunoResearch, 1:10.000 dilution in 1% BSA/PBS, 100 µl/well). Then plates were washed three times with PBS, developed with 100 µl TMB substrate, blocked with 100 µl 0.2 M H2SO4 and measured by the TECAN-ELISA reader sunrise at 450 nm. Samples were run in triplicates. Results shown are representative for three independent repeats.

B1: CC1/3/5-Sab (antibody, V domains shown)
VH: EVQLQQSGPELVKPGTSVKMSCKASGYTFTTYVMHWVQQKPGQGLDWIGFFNPYNDGTKYNEKFKGKATLTSDKSSSTAYMELSSLTSEDSAVYYCARWAYDGSYAYWGQGTTLTVSS
VL: DIQMTQSSSYLSVFLGGRVTITCKASDHINNWLAWYQQKPGNAPRLLISGATSLETGVPSRFSGSGSGKDYTLSIISLQTEDVATYYCQQYWRTPFTFGSGTKLEIK
notes: also called mAb CC1/3/5-Sab; CC1/3/4-Sab
binding result (CEACAM1-dN-Fc): no binding (tested: 5 µg/ml) | binding result (human CEACAM3-Fc): binds | binding result [1]: binds | binding result (human CEACAM5-Fc): binds | binding result (human CEACAM6-Fc): no binding (tested: 0.1 µg/ml CEACAM-Fc) | binding result (human CEACAM8-Fc): no binding (tested: 0.1 µg/ml CEACAM-Fc) | binding result (human CEACAM1): binds | binding result (human CEACAM3): binds | binding result [2]: binds
